# Data: FireProtDB (doi:10.1110/ps.03176803)
# Conditions: Kitasatospora aureofaciens; pH 7; Thermal; DSC; PIPES 0.03 M; reversible: yes (90-95%); whole UniProt chain shown
protein,measurement,value
"Guanyl-specific ribonuclease Sa wild type, P05798 (protein) DVSGTVCLSALPPEATDTLNLIASDGPFPYSQDGVVFQNRESVLPTQSYGYYHEYTVITPGARTRGTRRIITGEATQEDYYTGDHYATFSLIDQTC",Tm,49 °C
same,unfolding enthalpy (calorimetric),92 kcal/mol
same,unfolding enthalpy (van 't Hoff),103 kcal/mol
